Data from patent US20210170043A1, “DC-SIGN ANTIBODY CONJUGATES COMPRISING STING AGONISTS” (NOVARTIS AG, priority 2018, published 2021).
Read-outs that look alike come from different tables or passages of the source.

Experiments:
human DC-SIGN [1] = target: T1, human DC-SIGN (Homo sapiens, UniProt Q9NNX6); assay: FACS binding to CHO cells stably expressing human DC-SIGN; details: FACS MFI, average
T1 construct: expressed in transfected cells
T1 sequence (Q9NNX6 1-404): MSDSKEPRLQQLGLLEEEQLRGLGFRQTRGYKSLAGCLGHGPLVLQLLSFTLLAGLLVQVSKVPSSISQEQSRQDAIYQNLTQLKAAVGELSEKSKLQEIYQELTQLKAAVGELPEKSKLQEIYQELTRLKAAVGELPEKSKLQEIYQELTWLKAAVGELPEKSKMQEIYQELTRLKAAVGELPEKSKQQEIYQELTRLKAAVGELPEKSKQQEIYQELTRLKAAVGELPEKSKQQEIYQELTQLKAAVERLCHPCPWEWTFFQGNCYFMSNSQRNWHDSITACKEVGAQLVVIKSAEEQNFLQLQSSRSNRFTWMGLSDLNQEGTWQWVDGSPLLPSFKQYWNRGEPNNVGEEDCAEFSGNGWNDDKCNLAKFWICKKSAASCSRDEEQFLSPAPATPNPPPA
Experimental: (§1) The affinity of various antibodies and ADCs to DC-SIGN and its species orthologues was determined using FACS. Purified IgGs were titrated to determine EC50 values for binding to cell surface expressed DC-SIGN.
(§2) For this purpose, human DC-SIGN expressing or cynomolgus monkey DC-SIGN expressing stable CHO cell lines or K562 expressing DC-SIGN or K562 expressing L-SIGN cell lines were checked for density and viability using VICELL (Beckman Coulter), and washed once with 4° C. PBS. Cells were stained with DAPI (0.5 ug/mL) diluted in PBS for 30 min on ice. Cells were diluted into 4° C. FACS buffer (PBS, 10 mM EDTA, 2% FBS). 125 μl of cells were seeded (10,000 cells/well) into 96-well v-bottom plates (Nunc cat#442587) and centrifuged for 4 min at 1500 rpm at 4° C. Supernatant was removed. Cells were incubated with a serial dilution of each anti-DC-SIGN antibody in FACS buffer at concentrations ranging across several logs with a top concentration no higher than 50 μg/mL for 60 minutes at 4° C. Following incubation, cells were spun down (1500 rpm, 4 min, 4° C.) and washed two times with FACS buffer. A fluorophore-conjugated anti-hFc gamma-AF-647 (Southern Biotechnology) detection antibody was added at 1:400 and samples were incubated for 1 h on ice in the dark. Following incubation, FACS buffer was added, and the cells were spun down (1500 rpm, 4 min, 4° C.) and washed two times with FACS buffer. After the final wash, cells were resuspended in Fixative Buffer (Biolegend, 420801) and 90 μl of FACS buffer followed by readout on the flow cytometry machine (BD LSRFortessa Cell Analyzer; Cat #647177). Geometric Mean fluorescence intensity (MFI) of live, single cells was calculated in Flowjo 10.4.2 and exported into Graphpad Prism7 for EC50 determination.

[2] = system: cynomolgus monkey DC-SIGN; assay: FACS binding to CHO cells stably expressing cynomolgus monkey DC-SIGN; details: FACS MFI, average
Experimental: as §1, §2
In a similar experiment the antibodies were tested for cross-reactivity using engineered isogenic matched cell line.

human DC-SIGN [3] = target: T1, human DC-SIGN; assay: FACS binding to K562 cells expressing human DC-SIGN; details: FACS MFI
Experimental: as §1, §2

[4] = target: T2, DC-SIGN Carbohydrate Recognition Domain (CRD) (Homo sapiens, UniProt Q9NNX6); assay: Biacore affinity to DC-SIGN Carbohydrate Recognition Domain; format: binding; details: 25° C.
T2 construct: The DC-SIGN CRD was captured via the His tag; AviTag (C)
T2 sequence (Q9NNX6 with tags, fused parts or gaps): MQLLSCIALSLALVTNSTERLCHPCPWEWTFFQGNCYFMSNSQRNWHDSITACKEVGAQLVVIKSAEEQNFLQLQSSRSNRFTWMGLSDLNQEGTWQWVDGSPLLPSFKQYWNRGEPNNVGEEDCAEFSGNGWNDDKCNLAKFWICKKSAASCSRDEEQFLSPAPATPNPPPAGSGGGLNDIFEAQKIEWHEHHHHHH
Experimental: The affinity of various antibodies to DC-SIGN Carbohydrate Recognition Domain (CRD) was determined using Biacore. Purified IgGs for the parental antibodies were titrated to determine Kd values for binding to purified antigen domain by two methods described below.
In method 1 DC-SIGN was used as the ligand (surface attached) and the antibody the analyte (injected at different concentrations). The DC-SIGN CRD was captured via the His tag on a CM5 chip that was prepared by immobilizing 12000RU NeutrAvidin followed by capturing ˜550RU of Tris-NTA biotin. Fresh DC-SIGN was used for each dose. Each cycle consisted of charging the surface with a 120s pulse of 5 mM NiCl2, capturing the same amount of DC-SIGN, injecting the antibody at the desired concentration, and stripping the Ni^2+ with pulses of 350 mM EDTA and 500 mM imidazole to remove all DC-SIGN. Antibodies were injected at concentrations between 250 and 31 nM for 180s and allowed to dissociate for 600s. The reverse orientation was used in method 2-antibody the ligand and DC-SIGN the analyte. A CM5 chip was first prepared with mouse anti-human IgG Fc and used to capture the antibodies. […] Kinetic parameters were calculated using the 8K analysis software.

Chain of cynomolgus monkey DC-SIGN (as listed by the source): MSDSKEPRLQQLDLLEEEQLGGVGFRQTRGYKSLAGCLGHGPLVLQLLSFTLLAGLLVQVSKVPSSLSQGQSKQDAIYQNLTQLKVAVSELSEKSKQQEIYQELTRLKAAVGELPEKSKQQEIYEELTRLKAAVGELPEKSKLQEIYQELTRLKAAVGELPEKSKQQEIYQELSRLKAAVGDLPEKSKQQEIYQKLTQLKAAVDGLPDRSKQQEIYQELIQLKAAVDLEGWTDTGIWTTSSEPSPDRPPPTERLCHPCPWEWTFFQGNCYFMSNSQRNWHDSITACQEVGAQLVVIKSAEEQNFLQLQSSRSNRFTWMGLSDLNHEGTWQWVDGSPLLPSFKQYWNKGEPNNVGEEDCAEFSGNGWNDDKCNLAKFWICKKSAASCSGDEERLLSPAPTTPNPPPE

human DC-SIGN CHO EC50 (ug/mL) ave. (human DC-SIGN [1]): 0.15 µg/mL
cyno DC-SIGN CHO EC50 (ug/mL) ave. [2]: 15.69 µg/mL
human DC-SIGN K562 EC50 (human DC-SIGN [3]): >10 µg/mL
Kd ([4]; method 1: DC-SIGN CRD captured on chip, antibody as analyte, read-out: high density DC-SIGN CRD on chip): 0.111 µM
Kd ([4]; method 2: antibody captured on chip, DC-SIGN CRD as analyte, read-out: Ab on chip): 47.6 µM
B1: 892D15: anti-DC-SIGN antibody; All antibodies except 892D15 and 942K11 bind human and cynomolgus monkey DC-SIGN similarly; headings print 952D15 (antibody)
heavy: QVTLRESGPALVKPTQTLTLTCTFSGFSPSTSGMSVSWIRQPPGKALEWLALIDWDDDKYFSTSLKTRLTISKDTSKNQVVLTMTNMDPVDTATYYCARAHSGSYFDYWGQGTLVTVSSASTKGPSVFPLAPSSKSTSGGTAALGCLVKDYFPCPVTVSWNSGALTSGVHTFPAVLQSSGLYSLSSVVTVPSSSLGTQTYICNVNHKPSNTKVDKRVEPKSCDKTHTCPPCPAPELLGGPSVFLFPPKPKDTLMISRTPEVTCVVVAVSHEDPEVKFNWYVDGVEVHNAKTKPREEQYNSTYRVVSVLTVLHQDWLNGKEYKCKVSNKALAAPIEKTISKAKGQPREPQVYTLPPSREEMTKNQVSLTCLVKGFYPCDIAVEWESNGQPENNYKTTPPVLDSDGSFFLYSKLTVDKSRWQQGNVFSCSVMHEALHNHYTQKSLSLSPGK
light: DIQMTQSPSTLSASVGDRVTITCRASQSISNWLAWYQQKPGKAPKLLIYKASSLESGVPSRFSGSGSGTEFTLTISSLQPDDFATYYCQQFNSYWTFGQGTKVEIKRTVAAPSVFIFPPSDEQLKSGTASVVCLLNNFYPREAKVQWKVDNALQSGNSQESVTEQDSKDSTYSLSSTLTLSKADYEKHKVYACEVTHQGLSSPVTKSFNRGEC
